The text below walks through data of the DeepSol protein solubility set.

The series can be described thus: soluble on expression in E. coli; label from the status in PepcDB or PDB records.
Consider “MSVVKSIELVLPEDRIYLAGSSIKGQVILTLNSTLVDPIVKVELVGRGYVEWSEEAGASCDYSRNVICNNKADYVHKTKTFPVEDNWLSAGSHTFDFHFNLPPRLPSTFTSKFGHVFYFVQASCMGREHILAKKRMYLLVQGTSTFHKETPFQNPLFVEAEEKVSYNCCRQGTVCLQIQMERNTFTPGEKVVFTTEINNQTSKCIKTVVFALYAHIQYEGFTPSAERRSRLDSSELLRQEANTPVTRFNTTKVVSTFNLPLLLSVSSSTQDGEIMHTRYELVTTVHLPWSLTSLKAKVPIIITSASVDSAICQLSEDGVLPVNPDHQN”, for which the “soluble on expression in E. coli” value is recorded as “soluble”.
The same measure for “MSVWLLQMKTNAIITDITKSIVKMDRILVYRHTNPDPDAIGAQFGLVALLKAAYPEKLVVAMAPVPGHLAWIDTTDEQLVTPQATDLVIAVDCANHERLAGELPTGAFVIKIDHHPNHDPYGQLNWVDETYSSCSEMIYELAQAGCFTVTAAVATKLYAGIIGDTVRFSTPETSTRTLKIASALAATDIDIATISHHEMDLTPALSKLYGYVLSEQTIEPSGLAHVVLPQRIFSDLSLEYGDEDALVPLPGNLTTVKVWLFFIETPQGQYRVHFRSKAINVNAVAKAFNGGGHPLASGAFVPDLATVGQVIEQMQAQVLAATAVDLEHHHHHH”: “not soluble”; for “MSWKHIKIPNGDTMIFCNSFITRKSSMNIVVTHTPIVTTLEMQKAYEPLAKHNVNIFAFDFSGTGKSDGYEKDFSRNSIVKDLDSVITYIEKNYSSNIHLYGNTGIGGMFAQYYACSDNKLKSFAQFACVDYKNTTGVGYTYLTVKLLNFFFKFLPNFHITVKPPKYKGYNEVYDNEFYKIFEKKNPHIWKNSTKIINTMLECFIAKDSKIKDGVNIPTLVFKTLHDRYFKTQYFDSYYNSLKCKKKLVEINNVHNSYYIDSEKFCQEAYDWFVENQ”: “not soluble”; for “MTAEHSWRLCLMALAFEDQLAGLDLGKVLRMCVVHDLGEAIHGDIPAVEQAAHPDKGEQERADLLQLTRHLDAPLRDRLLALWDEYERGESAEALAVKALDKLETL”: “soluble”.
The same measure for “MTAENLSLSPELLDAVRRISGTEHLLVALDFDGTLSPIVDRAEDARPLPRSAAALEALAQLPRTTTALISGRALDSLRLVASPPADTLLIGSHGAEVWLGEGSLGLELDEDQRLKLAAVREVLSEIVNIAPGTLLEDKPAGVVLHTRMADDDVADDAVEAAMRVLREHPGVYLKTGKRVLETSVVHASKGQAVEFLRQATGATAILFAGDDVTDEDALGRLMGDDVGIKVGLDFTQAQYRVEAPVHVAELLEALLRERRRVTTDA”: “soluble”.
As for “MTAPISLRLVVEARDLPPMLPDVLRERFDRGETGVAWAPEHDASVGAPLGVLGGPEATAWPFAISEPPPVNVPALCAVGPCWWYPSFGAVIGNDGALYNATVGEARHGSADLSAIPGVASGGTRLVPPQDAPVLDGGAVFMPWGAGFNYGHFVIDALPSILALEQAGLLHDTPLLAPRLTDWQRELIAMATPGVRLQEVDAPAVRLGRAVFATSMDHFLHHPNGLLATLAERVTANAPKGAGARRVYLSRRGQSMRVMVGEAAFERALQARGFVIVRPETLGARAQVALMRDAEIIVGASGAALANAVFLPRGARVIEIQPTNFTSQWVRAACRQVGVEWRGYVCASPCPAHAAPLLARLRRGFKFAFRPDLDDLLSFVDAALLEHHHHHH”, the “soluble on expression in E. coli” value is given as “not soluble”.
The same measure for “MTARIYKPAKNAMQSGTAKTREWQLDYEPETPRTIEPLMGWTSSSDMQQQVSLRFHTRDEAVAYCEREGIPYQLIEPKEPVRRRAAYADNFAFRRPEPWTH”: “soluble”; for “MTASDSAADETGDLRHEAHAWVISLTSGRVTQGDARAFRQWCARSPQHLRAFVEARDLWQALGSAAALPLEPPAVAQIAPRRFGRRWFVGGALAASVALFVLRPSLLDHGLGGADYVTAVGEQRQVQVSGETRIEMNTRTRLNVRRNQEQQETIELLGGEAEIIASHPPQSSLRVMAGSAWLSASRARFNVRSSGDVCVVTCLEGSVRLEHLGQRLDLQAGQQLTFDERRNGPPVPFDVAEVMAWRERMLVFNDVPLATVIDEINRYRPGMLLLLDKALGRRRVQARFSLDQLADVATLIRDAYGIEVTRLPGGVVLLG”: “not soluble”.
The result for “MTAVKHTTESTFAKLGVRDEIVRALGEEGIKRPFAIQELTLPLALDGEDVIGQARTGMGKTFAFGVPLLQRITSGDGTRPLTGAPRALVVVPTRELCLQVTDDLATAGKYLTAGPDTDDAAAVRRRLSVVSIYGGRPYEPQIEALRAGADVVVGTPGRLLDLCQQGHLQLGGLSVLVLDEADEMLDLGFLPDIERILRQIPADRQSMLFSATMPDPIITLARTFMVRPTHIRAEAPHSSAVHDATEQFVYRAHALDKVELVSRVLQARDRGATMIFTRTKRTAQKVADELTERGFAVGAVHGDLGQLAREKALKAFRTGGIDVLVATDVAARGIDIDDVTHVINYQCPEDEKMYVHRIGRTGRAGRTGVAVTLVDWDELPRWSMIDQALGLGSPDPAETYSNSPHLYAELAIPATAGGTVGPARKSQGRRRDTDCDGQKTAQHARNTPRRRRTRGGKPVTGHPGTNPISSPIVGGDATSEPGSGTASDSGSDVVSGSRSGNGEAARRRRRRRRRPTHAQDGFAARAN” reads “soluble”; that for “MTAVPLPILHLPHNALQMSLKQMSTVEHLALSFVSNKTRRLIKMLKEKNHITCISMGSPISIDFLSLTFDYKSNQKIVKIDNPEQNGSLSRLNLPGFTEKQWIEHFANVFIQNKKVMLISDLGERKIEDIYESIKDLNIVTLDIMTSEFQDCKLFKLFPTLEELGVSETPLSAPIFVQNFQSLTAIDVTLDDILSSNCTNLCLDDQLISDKDLNIFMRNWIKGSNPRLRKLTNTSVRHERDISDSVFFRGISQIKTRDWCDEDTFDKEFEIKNEDGVRAKVTLSTFSFIFCIEDF”, “not soluble”.
Turning to “MTDANYPIYGDIDGPIIMIGFGSIGRGTLPLIERHFNFDRTRLVVIDPREDIAAFLAERNIRHVQTHLTKENYKDVLKPLLKGVQGKGFCVNLSVDAASVDLMRICRKHGMLYIDTVVEPWPGFYFDADADNRARTNYSLRETMLKERARKPGGTTAVSTCGANPGMVSWFVKQALVNLAKDTGLDIEEPQSHDREGWAKLMQQLGVKGVHVAERDTQRAKEPKPFGAFWNTWSVEGFIAEGFQPAELGWGTHENWMPKNAKKQKKGSKAAIYLDQPGANTRVRTWCPGLGAQYGFLVTHNEAISISDYFTVRNDDGDVTYRPTCHYAYHPCNDAILSLHELFGNGGNPQPIQHVLGEDELVDGADELGVLLYGHDRNAYWYGSRLSLEEARSLAPSQNATGLQVSSAVLAGMAWAIENPEAGIVEADEMDYRRCLEVQRPYLGPVEGHYTDWTPLDGRPGLFPDNIDMSDPWQFRNILVRAAALEHHHHHH”, the “soluble on expression in E. coli” value is recorded as “soluble”.
“MTDERYGYIHASMLPTQCLCTKLRRAARSVSRFYDEALADTGLKVAQFSLLRHLRRLDRPSISELAEAMGLDRSTLGRNLRVLEGDGLLRLTGGEDQRNRLVELTPAGLDALERGTPAWEDAQRRLAGRLGEERSGALAALLAELERLD”: the “soluble on expression in E. coli” value is on record as “not soluble”.
Regarding “MTDKQAIREQMWQEMTEKKVGRFPFPLKGRIPNFKGAEQATRHLIQLEAYKQAKVVKVNPDSPQLPLRAQVLMDGKTLLVPTPRLKDGFILVKPEWVPEGEERKAVSLRNILSYGKVISLTEMPEIDLIVMGSVAVDRSGRRIGKGEGYADREYAIIRELGNRPVPVVTTVHQVQLVDVELPRDAYDVTVDWIATTEGLMQSVGAIEKPTGIVWSEVTEEELEAMPVLREIRELTKRQLEHHHHHH”, the “soluble on expression in E. coli” value is listed as “soluble”.
The result for “MTDNARKEYLNQFFGSKRYLYQDNERVAHIHVVNGTYYFHGHIVPGWQGVKKTFDTAEELETYIKQQDLEYEEQKQLTLFLEHHHHHH” reads “not soluble”.
The same measure for “MTDNDAVSAAFAHMRQEAKKRTGTVPNLNRPLPKASKSLADNDATPAVPKQRGMATGPDGRRRRRSYSVQRAGSILSDEIKKRGWRKEIAGGWVNSHWDDLVGAQIAAHTKVEMFKDKALFITCDSTAWATNLRMMQRIILRSISEQIGPDIIVELKIFGPKAPSWRHGPLHVKGRGPRDTYG”: “not soluble”; for “MTDNSNIRVVVGMSGGVDSSVTALLLKEQGYDVIGVFMKNWDDTDEFGVCTATEDYKDVAAVADQIGIPYYSVNFEKEYWDRVFEYFLAEYRAGRTPNPDVMCNKEIKFKAFLDYAMTLGADYVATGHYAQVTRDENGIVHMLRGADNNKDQTYFLSQLSQEQLQKTLFPLGHLQKPEVRRIAEEAGLATAKKKDSTGICFIGEKNFKDFLGQYLPAQPGRMMTVDGRDMGEHAGLMYYTIGQRGGLGIGGQHGGDNKPWFVVGKDLSKNILYVGQGFYHDSLMSTSLTASEIHFTRDMPNEFKLECTAKFRYRQPDSKVTVYVKGNQARVVFDDLQRAITPGQAVVFYNEQECLGGGMIDQAYRDDKICQYIMAGDPLEHHHHHH”: “not soluble”.
The result for “MTDQPIIDYRFLEPLPRGIILAATPLGNIGDASPRLAQALAQAHVVAAEDTRRTRALAQALGVEITGQVLSNFDHNEQGRAQQLVEMARTHTVVVVTDAGMPIVSDPGFPLVEAAHKAGVPVTCFPGPSAVPTALALSGLHVGKFAFDGFAPRKQGQRRAWLESLQQEQRAVCFFESPHRIAATLADAAEVLGAKRRAAVARELTKTFEEVRRGGLGELAEWAAKGIKGEVSVVIEGVQHVQHEDVHSLVAVVEERVLAGERLKSACGEVAAHYGVSKKQLYDAVLESRAE” reads “soluble”; that for “MTDTASKYAVKLKTNFEDPKWVNRHKFMFNFLDINGNGKITLDEIVSKASDDICAKLGATPAQTQRHQEAVEAFFKKIGLDYGKEVEFPAFVNGWKELAKHDLKLWSQNKKSLIRNWGEAVFDIFDKDGSGSISLDEWKTYGGISGICPSDEDAEKTFKHCDLDNSGKLDVDEMTRQHLGFWYTLDPNADGLYGNFVP”, “soluble”.
In the case of “MTDVALSQDVSRFLRYLGVERQLSPITLLNYQRQLDAIIALAGETGLKSWQQCDAAIVRSFAVRSRRKGLGPASLALRLSALRSFFDWLVSQGELKANPAKGVSAPKAPRHLPKNIDVDDVNRLLDIDLNDPLAVRDRAMLEVMYGAGLRLSELVGLDIKHLDLDTGEVWVMGKGSKERRLPIGRNAVTWIEHWLDLRGLFASDEEALFLSKLGKRISARNVQKRFAEWGIKQGLNSHVHPHKLRHSFATHMLESSGDLRGVQELLGHANLSTTQIYTHLDFQHLASVYDAAHPRAKRGK”, the “soluble on expression in E. coli” value is “not soluble”.
With “MTDVEIKAENGSGDASLEPENLRKIFVGGLTSNTTDDLMREFYSQFGEITDIIVMRDPTTKRSRGFGFVTFSGKTEVDAAMKQRPHIIDGKTVDPKRAVPRDDKNRSESNVSTKRLYVSGVREDHTEDMLTEYFTKYGTVTKSEIILDKATQKPRGFGFVTFDDHDSVDQCVLQKSHMVNGHRCDVRKGLSKDEMSKAQMNRDRETRGGRSRDGQRGGYNGGGGGGGGWGGPAQRGGPGAYGGPGGGGQGGYGGDYGGGWGQQGGGGQGGWGGPQQQQGGGGWGQQGGGGQGGWGGPQQQQQGGWGGPQQGGGGGGWGGQGQQQGGWGGQSGAQQWAHAQGGNRNY”, the “soluble on expression in E. coli” value is recorded as “not soluble”.
